Measured values: PMC4528139
Values joined by “and” are separate entries in the source; they are usually repeats but may differ in a detail not shown here. Identical values can stand only once.

Experiments:
[1] = target: 40007 (clade CRF01 A-E) gp140 trimer, Strep-tag approach (HIV-1 strain 40007); experiment: not stated; trimers purified by the Strep-tag approach; manuscript in preparation
[2] = target: JRFL foldon-gp140 (uncleaved foldon trimer) (HIV-1 strain JRFL | bacteriophage T4); experiment: SEC + native gel or EMSA
[3] = target: SF162 (clade B) gp140 trimer, Strep-tag approach (HIV-1 strain SF162); experiment: not stated; trimers purified by the Strep-tag approach; manuscript in preparation
[4] = target: Strep-tagged BG505 CR gp140 (uncleaved) (HIV-1 strain BG505); experiment: native gel or EMSA
[5] = target: Strep-tagged JRFL CP664-gp140 (cleaved trimer) (HIV-1 strain JRFL); experiment: SEC + native gel or EMSA; Strep-Tactin-purified gp140 on Superdex 200 in 25 mM Tris-HCl pH 8, 150 mM NaCl; fractions on blue native PAGE; 293F- or GnTI−-produced
[6] = target: Strep-tagged JRFL CP664-gp140 (cleaved trimer) (HIV-1 strain JRFL); experiment: native gel or EMSA
[7] = target: Strep-tagged JRFL CP664-gp140 (cleaved trimer) (HIV-1 strain JRFL); experiment: negative stain EM
[8] = target: Strep-tagged JRFL CR664-gp140 (uncleaved) (HIV-1 strain JRFL); experiment: SEC + native gel or EMSA; Strep-Tactin-purified gp140 on Superdex 200 in 25 mM Tris-HCl pH 8, 150 mM NaCl; fractions on blue native PAGE; 293F- or GnTI−-produced
[9] = target: Strep-tagged JRFL CR664-gp140 (uncleaved) (HIV-1 strain JRFL); experiment: native gel or EMSA
[10] = target: Strep-tagged JRFL CR664-gp140 (uncleaved) (HIV-1 strain JRFL); experiment: negative stain EM

## 40007 (clade CRF01 A-E) gp140 trimer, Strep-tag approach (natural protein)
[1]
  stoichiometry N: 3

## JRFL foldon-gp140 (uncleaved foldon trimer)
[2]
  stoichiometry N: 3

## SF162 (clade B) gp140 trimer, Strep-tag approach (natural protein)
[3]
  stoichiometry N: 3

## Strep-tagged BG505 CR gp140 (uncleaved) (natural protein)
[4]
  stoichiometry N: 3

## Strep-tagged JRFL CP664-gp140 (cleaved trimer) (complex)
[5]
  fold, fraction of gp140 recovered as trimers against uncleaved gp140: 3 fold and 5 fold
  stoichiometry N: 3
[6]
  stoichiometry N: 3
[7]
  stoichiometry N: 3

## Strep-tagged JRFL CR664-gp140 (uncleaved) (natural protein)
[8]
  stoichiometry N: 3
[9]
  stoichiometry N: 2 and 3
[10]
  stoichiometry N: 3
